According to publication PMC8287922:
Like-named read-outs stand apart in the source and are kept apart here.

Columns and labels:
Assay in all cases: EMSA
Pax7 PD-HD [1] = target: T1, Pax7 PD-HD (mouse (Mus musculus), UniProt P47239 35-273)
Pax7 HD = Pax7 HD (mouse (Mus musculus), UniProt P47239 215-273)
Pax7 PD-HD homodimer = Pax7 PD-HD homodimer (mouse (Mus musculus), UniProt P47239 35-273)
Pax7 PD-HD [2] = target: T1, Pax7 PD-HD; remark: listed apart in the source
Pax7 PD-HD [3] = target: T1, Pax7 PD-HD; remark: listed apart in the source
Pax7 PD-L = Pax7 PD-L (mouse (Mus musculus), UniProt P47239 35-215)
Pax7 PD = Pax7 PD (mouse (Mus musculus), UniProt P47239 35-158)
Pax7 PD-HD [4] = target: T1, Pax7 PD-HD; remark: listed apart in the source

Pax7 HD, sequence (P47239 215-273): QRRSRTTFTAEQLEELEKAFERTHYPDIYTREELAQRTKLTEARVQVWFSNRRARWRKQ
T1 sequence (P47239 35-273): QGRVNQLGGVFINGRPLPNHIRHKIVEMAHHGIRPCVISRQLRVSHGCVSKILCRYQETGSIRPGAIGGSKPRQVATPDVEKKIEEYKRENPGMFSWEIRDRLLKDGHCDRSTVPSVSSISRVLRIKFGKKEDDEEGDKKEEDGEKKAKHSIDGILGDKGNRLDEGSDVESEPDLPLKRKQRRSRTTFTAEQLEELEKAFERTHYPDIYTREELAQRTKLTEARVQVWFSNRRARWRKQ
Pax7 PD, sequence (P47239 35-158): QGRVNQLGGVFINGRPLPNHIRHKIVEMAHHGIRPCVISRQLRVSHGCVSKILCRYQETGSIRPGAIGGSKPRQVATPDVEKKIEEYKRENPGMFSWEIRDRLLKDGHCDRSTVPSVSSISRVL
Pax7 PD-HD homodimer, sequence (P47239 35-273): as the sequence (P47239 35-273) above
Pax7 PD-L, sequence (P47239 35-215): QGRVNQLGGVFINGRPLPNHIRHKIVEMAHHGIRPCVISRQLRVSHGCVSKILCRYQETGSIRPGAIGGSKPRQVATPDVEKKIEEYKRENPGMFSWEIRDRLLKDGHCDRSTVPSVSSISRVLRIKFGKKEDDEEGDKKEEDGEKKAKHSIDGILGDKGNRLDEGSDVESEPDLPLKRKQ

B1: H.I-2 (dsDNA)
DNA 1: TCGACCAGATCGTCCGCTAATTACCAACGACCTCGA
DNA 2: TCGAGGTCGTTGGTAATTAGCGGACGATCTGGTCGA
- binding result (Pax7 PD-HD [1]): binds
- binding result (Pax7 HD): no binding

B2: HD (mutated PD) (dsDNA)
DNA 1: TCGACGCAGATCGTCCGCTAATTCCAACGACCTCGA
DNA 2: TCGAGGTCGTTGGAATTAGCGGACGATCTGCGTCGA
- binding result (Pax7 HD): no binding

B3: H.I2 (dsDNA)
DNA 1: TCGACTCGTCCGCTAATTGATTATCCAACGACCTCGA
DNA 2: TCGAGGTCGTTGGATAATCAATTAGCGGACGAGTCGA
- binding result (Pax7 PD-HD homodimer): binds
- binding result (Pax7 PD-HD [2]): binds
- binding result (Pax7 HD): binds

B4: PD (mutated HD) (dsDNA)
DNA 1: TCGACGCAGATCCGTGACGCCAGTTCCGACCTCGA
DNA 2: TCGAGGTCGGAACTGGCGTCACGGATCTGCGTCGA
- binding result (Pax7 PD-HD [3]): binds
- binding result (Pax7 PD-L): binds
- binding result (Pax7 PD): binds

B5: Composite HP.E0 (dsDNA)
DNA 1: TCGACGCAGATCCGTGACTAATGTTCCGACCTCGA
DNA 2: TCGAGGTCGGAACATTAGTCACGGATCTGCGTCGA
- binding result (Pax7 PD): binds
- binding result (Pax7 PD-HD [4]): binds
